Experimental data from patent US20180066066A1 (University of Texas, published 2018).

Key:
[1] = target: T1, human HER3/ErbB3 extracellular domain (human, UniProt P21860 20-643); assay: SPR, Biacore T-100, HER3 ECD
T1 construct: extracellular domain; the range 1-643 of M34309 is printed only for the immunogen; also called Human HER3 ECD; recombinant human HER3

[2] = target: T1, human HER3/ErbB3 extracellular domain; assay: ELISA on human HER3 ECD
[3] = target: human HER3 receptor on cells (human, UniProt P21860 20-1342); assay: cell-based or functional assay
human HER3 receptor on cells, sequence (P21860 20-1342): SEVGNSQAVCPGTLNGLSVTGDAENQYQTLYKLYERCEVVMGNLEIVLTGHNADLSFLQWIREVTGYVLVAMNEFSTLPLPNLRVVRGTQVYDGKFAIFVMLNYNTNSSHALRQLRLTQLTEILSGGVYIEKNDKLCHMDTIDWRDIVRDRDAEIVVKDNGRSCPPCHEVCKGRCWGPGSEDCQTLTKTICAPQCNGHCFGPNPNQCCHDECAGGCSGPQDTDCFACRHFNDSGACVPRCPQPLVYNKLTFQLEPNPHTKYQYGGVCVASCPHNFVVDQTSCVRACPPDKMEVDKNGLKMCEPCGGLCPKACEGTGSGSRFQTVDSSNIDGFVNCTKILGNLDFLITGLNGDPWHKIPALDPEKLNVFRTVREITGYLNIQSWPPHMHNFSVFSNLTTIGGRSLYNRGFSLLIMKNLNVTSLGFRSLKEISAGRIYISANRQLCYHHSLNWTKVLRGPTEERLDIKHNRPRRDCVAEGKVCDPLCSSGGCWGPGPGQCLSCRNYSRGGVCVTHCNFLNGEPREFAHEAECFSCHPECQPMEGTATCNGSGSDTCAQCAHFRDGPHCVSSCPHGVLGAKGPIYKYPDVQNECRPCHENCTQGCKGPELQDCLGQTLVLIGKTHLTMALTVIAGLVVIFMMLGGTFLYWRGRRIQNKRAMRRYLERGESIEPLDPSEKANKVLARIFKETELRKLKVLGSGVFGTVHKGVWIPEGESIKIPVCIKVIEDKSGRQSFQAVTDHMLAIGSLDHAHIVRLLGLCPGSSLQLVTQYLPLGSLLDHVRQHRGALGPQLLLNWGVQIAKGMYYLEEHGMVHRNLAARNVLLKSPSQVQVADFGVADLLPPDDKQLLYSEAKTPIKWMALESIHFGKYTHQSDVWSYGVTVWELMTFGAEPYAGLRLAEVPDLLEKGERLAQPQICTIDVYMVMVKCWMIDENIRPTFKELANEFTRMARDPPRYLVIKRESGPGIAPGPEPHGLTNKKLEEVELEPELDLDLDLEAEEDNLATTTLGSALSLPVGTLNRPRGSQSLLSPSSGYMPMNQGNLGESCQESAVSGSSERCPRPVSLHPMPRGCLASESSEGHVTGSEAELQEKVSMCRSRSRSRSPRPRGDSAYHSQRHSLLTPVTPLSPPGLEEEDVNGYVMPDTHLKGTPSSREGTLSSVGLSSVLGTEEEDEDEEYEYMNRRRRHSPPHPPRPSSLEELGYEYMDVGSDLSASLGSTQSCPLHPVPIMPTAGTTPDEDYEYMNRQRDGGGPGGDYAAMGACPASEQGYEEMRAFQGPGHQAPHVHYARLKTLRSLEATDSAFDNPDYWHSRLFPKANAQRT

Mouse HER3 ECD = target: T2, Mouse HER3 ECD (mouse, UniProt Q61526 20-641); assay: ELISA on mouse HER3 ECD; column uncertain
T2 construct: extracellular domain; also called mouse HER3 ECD domains
T2 sequence (Q61526 20-641): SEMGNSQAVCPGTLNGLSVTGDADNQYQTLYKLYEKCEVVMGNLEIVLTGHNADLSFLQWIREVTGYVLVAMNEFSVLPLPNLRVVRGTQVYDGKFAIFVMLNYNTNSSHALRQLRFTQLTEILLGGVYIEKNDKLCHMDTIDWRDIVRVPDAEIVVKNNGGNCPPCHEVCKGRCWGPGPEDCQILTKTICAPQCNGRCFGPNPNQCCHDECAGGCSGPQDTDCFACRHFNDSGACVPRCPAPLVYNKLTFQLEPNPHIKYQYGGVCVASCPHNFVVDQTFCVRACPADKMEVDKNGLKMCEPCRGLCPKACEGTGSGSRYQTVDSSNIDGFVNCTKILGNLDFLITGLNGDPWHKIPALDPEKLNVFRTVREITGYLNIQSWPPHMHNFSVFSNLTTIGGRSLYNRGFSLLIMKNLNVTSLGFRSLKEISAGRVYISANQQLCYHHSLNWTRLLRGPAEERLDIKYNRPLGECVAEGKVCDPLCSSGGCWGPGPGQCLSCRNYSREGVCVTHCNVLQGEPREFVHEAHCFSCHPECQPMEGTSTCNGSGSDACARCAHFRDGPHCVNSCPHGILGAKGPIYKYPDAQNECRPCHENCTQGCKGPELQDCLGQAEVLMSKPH

T1 sequence (P21860 20-643): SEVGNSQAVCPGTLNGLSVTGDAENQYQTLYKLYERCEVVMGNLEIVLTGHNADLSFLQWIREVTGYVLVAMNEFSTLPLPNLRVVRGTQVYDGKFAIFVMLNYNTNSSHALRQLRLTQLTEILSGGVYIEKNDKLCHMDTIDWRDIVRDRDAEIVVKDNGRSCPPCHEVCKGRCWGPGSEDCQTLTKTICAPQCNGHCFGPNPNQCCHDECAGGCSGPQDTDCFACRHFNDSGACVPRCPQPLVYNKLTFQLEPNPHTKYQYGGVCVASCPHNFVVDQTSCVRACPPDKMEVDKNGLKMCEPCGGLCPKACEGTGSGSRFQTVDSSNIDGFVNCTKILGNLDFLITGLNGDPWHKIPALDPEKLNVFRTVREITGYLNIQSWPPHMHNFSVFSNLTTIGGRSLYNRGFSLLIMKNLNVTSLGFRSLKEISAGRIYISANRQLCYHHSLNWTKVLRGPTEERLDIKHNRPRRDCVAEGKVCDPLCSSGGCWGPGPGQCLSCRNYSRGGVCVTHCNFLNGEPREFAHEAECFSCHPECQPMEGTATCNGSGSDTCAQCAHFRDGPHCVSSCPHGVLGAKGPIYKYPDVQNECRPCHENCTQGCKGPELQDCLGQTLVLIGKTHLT

Kd [1]: 3.32 nM | koff [1]: 0.000458 s⁻¹ | kon [1]: 138000 M⁻¹ s⁻¹ | EC50 [2]: 2.7 ng/mL | pHER3 inhibition (IC50, µg/ml) [3]: 0.033 µg/ml | EC50 (Mouse HER3 ECD): 5.9 ng/mL
B1: Chi46 (antibody, V domains shown)
VH: EEQLVESGGGLVQPEGSLTLTCTASGFSFSASYYIYWVRQAPGKGLEGIAYITGDDDKRTYYANWAKGRFTISKTSTTVTLQMTSLTAADTATYFCTRNLPDELWGPGTLVTVSS
VL: QAVVTQTPSSVSAAVGGTVTISCQSSESVYSYKNLAWYQQKPGQPPRLLIWQASRLSSGVSSRFSGSGSGTQFTLTISGVQCDDAATYYCQGTYYSSAWDFVFGGGTEVMVE
notes: also called parental rabbit/human Fc chimera of Rab46
